Molecular target: GST-NLE1-Ubl WT (human, UniProt Q9NVX2 11-104)
Assay: ITC

Sequence of GST-NLE1-Ubl WT (Q9NVX2 11-104): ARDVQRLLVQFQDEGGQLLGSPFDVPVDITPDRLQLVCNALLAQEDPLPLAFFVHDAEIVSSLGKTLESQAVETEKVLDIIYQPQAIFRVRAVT

B1: MDN1-MIDAS-(His)6 (domain or fragment)
chain: ELERQLEMWQPRESGNPEEEKVAAEMWQSYLILTAPLSQRLCEELRLILEGSGKPSKRQYQICLAIDDSSSMVDNHTKQLAFESLAVIGNALTLLEVGQIAVCSFGESVKLLHPFHEQFSDYSGSQILRLCKFQQKKTKIAQFLESVANMFAAAQQLSQNISSETAQLLLVVSDGRGLFLEGKERVLAAVQAARNANIFVIFVVLDNPSSRDSILDIKVPIFKGPGEMPEIRSYMEEFPFPYYIILRDVNALPETLSDALRQWFELVTASDHP
Kd: 5.5 nM

Source: article PMC11983104 (Nucleic Acids Research, 2025)
